± gives the uncertainty stated by the source.
B1: Death-inducer obliterator 1, residues 263 to 321; numbered along this chain, Q9BTC0 (parent)
chain: GYDPNALYCICRQPHNNRFMICCDRCEEWFHGDCVGISEARGRLLERNGEDYICPNCTI
B2: Homeobox protein SIX6, residues 134 to 184; numbered along this chain, O95475 (parent)
chain: CFKERTRHLLREWYLQDPYPNPSKKRELAQATGLTPTQVGNWFKNRRQRDR

Variants of: B1
Test: abundance fitness (aPCA) (normalised: wild type 0, dead -1); higher = more abundant; growth selection in yeast, the domain comes from the species named
Conditions: Homo sapiens
With Y52L the abundance fitness was -0.032 ± 0.081. With Y52M the abundance fitness was -0.598 ± 0.26. Variant Y52H has an abundance fitness of -0.493 ± 0.17. Variant Y52N has an abundance fitness of -0.334 ± 0.42. Y52E showed an abundance fitness of -0.172 ± 0.092. In the case of Y52S, the abundance fitness is reported as -0.235 ± 0.077. N56Q gave an abundance fitness of -0.155 ± 0.16. Work on N56E yielded an abundance fitness of -0.007 ± 0.21. Variant N56R has an abundance fitness of -0.126 ± 0.11. Work on N56T yielded an abundance fitness of -0.01 ± 0.072. N56L showed an abundance fitness of -0.22 ± 0.078. In the case of N56W, the abundance fitness is reported as -0.002 ± 0.083. With N56G the abundance fitness was 0.064 ± 0.13. In the case of N56P, the abundance fitness is reported as -0.121 ± 0.096. With N56C the abundance fitness was -0.014 ± 0.11. For N56K, the abundance fitness was -0.525 ± 0.27. For N56M, the abundance fitness was -0.138 ± 0.14. N56Y showed an abundance fitness of 0.021 ± 0.14. Work on N56A yielded an abundance fitness of -0.037 ± 0.12. Work on N56S yielded an abundance fitness of 0.122 ± 0.071. For N56H, the abundance fitness was -0.048 ± 0.17. Variant C57T has an abundance fitness of -0.509 ± 0.12. C57E showed an abundance fitness of -0.483 ± 0.13. Variant C57D has an abundance fitness of -0.498 ± 0.15. With C57W the abundance fitness was -0.992 ± 0.17. C57P gave an abundance fitness of -0.828 ± 0.17. In the case of C57I, the abundance fitness is reported as -1.06 ± 0.3. Variant C57R has an abundance fitness of -0.769 ± 0.094. C57G gave an abundance fitness of -1.12 ± 0.29. With C57L the abundance fitness was -0.705 ± 0.12. In the case of C57Q, the abundance fitness is reported as -0.842 ± 0.13. C57A showed an abundance fitness of -1.04 ± 0.2. C57N showed an abundance fitness of -0.582 ± 0.3. For C57M, the abundance fitness was -0.989 ± 0.32. With C57V the abundance fitness was -0.904 ± 0.15. For C57S, the abundance fitness was -0.848 ± 0.12. In the case of C57H, the abundance fitness is reported as -0.206 ± 0.18. With C57Y the abundance fitness was -0.903 ± 0.22.

Variants of: B2
Test: as above
Conditions: Homo sapiens
Work on T6S yielded an abundance fitness of -0.174 ± 0.057. T6K gave an abundance fitness of -0.368 ± 0.084. With T6V the abundance fitness was 0.173 ± 0.045. For E12L, the abundance fitness was -0.458 ± 0.073. Work on R11K yielded an abundance fitness of 0.066 ± 0.074. R11D gave an abundance fitness of -0.612 ± 0.072. R11V showed an abundance fitness of -0.249 ± 0.064. Variant R11F has an abundance fitness of -0.63 ± 0.14. For R11A, the abundance fitness was -0.379 ± 0.1. R11N showed an abundance fitness of 0.27 ± 0.11. In the case of T32L, the abundance fitness is reported as -0.384 ± 0.065. In the case of T32A, the abundance fitness is reported as -0.572 ± 0.089. In the case of T32Y, the abundance fitness is reported as -0.84 ± 0.26. Variant T32F has an abundance fitness of -0.947 ± 0.15. For T32G, the abundance fitness was -0.863 ± 0.069. T32R gave an abundance fitness of -0.799 ± 0.085. Work on Q38T yielded an abundance fitness of -0.676 ± 0.08. With Q38E the abundance fitness was -0.301 ± 0.07. For Q38H, the abundance fitness was -0.878 ± 0.1. Q38V gave an abundance fitness of -0.87 ± 0.084. Variant Q38G has an abundance fitness of -0.728 ± 0.059. G33L showed an abundance fitness of -0.735 ± 0.059. G33Q showed an abundance fitness of -0.514 ± 0.049. Variant G33H has an abundance fitness of -0.61 ± 0.066. For V39G, the abundance fitness was -0.976 ± 0.11. Variant V39W has an abundance fitness of -0.896 ± 0.098. For V39D, the abundance fitness was -0.953 ± 0.35. Work on V39M yielded an abundance fitness of -0.944 ± 0.087. Variant V39S has an abundance fitness of -0.934 ± 0.18. With A31Y the abundance fitness was -0.36 ± 0.15. A31F gave an abundance fitness of 0.262 ± 0.11. Work on A31E yielded an abundance fitness of -0.14 ± 0.056. Variant A31Q has an abundance fitness of -0.001 ± 0.09. For A31H, the abundance fitness was -0.514 ± 0.14. L34Q gave an abundance fitness of -0.731 ± 0.063. Variant L34G has an abundance fitness of -0.742 ± 0.1. In the case of L34I, the abundance fitness is reported as -0.638 ± 0.072. With L34F the abundance fitness was -0.725 ± 0.12. Work on F43D yielded an abundance fitness of -0.775 ± 0.14. With F43W the abundance fitness was -0.926 ± 0.17. F43T gave an abundance fitness of -0.927 ± 0.11. For F43I, the abundance fitness was -0.649 ± 0.32. F43E showed an abundance fitness of -0.821 ± 0.11. F43L showed an abundance fitness of -0.904 ± 0.1. For F43C, the abundance fitness was -0.893 ± 0.21. Variant L10F has an abundance fitness of -0.684 ± 0.19.

From the Human Domainome abundance scans (Beltran et al. 2025)
